Laboratory results reported in article PMC10786891, “Massively parallel profiling of RNA-targeting CRISPR-Cas13d”.
Where a chain is given by its changes, count along the chain named. Names and notes keep the numbering of the source.

B1: target 1 insA 3' of 8,insA 3' of 8 (mixed)
RNA 1: CACCCGUGCAAAAAUGCAGGGGUCUAAAACUGAGCGGAUAACCUCUCUAUGG
RNA 2: GGGAAUGGAUCCACAUCUACGAAUUCGUACCAUAGAGAGGUUAUAACCGCUCACCGAGAUCGGAAGAGCACACGU
B2: target 1 insU 3' of 12,insC 3' of 1 (mixed)
RNA 1: B1 RNA 1
RNA 2: GGGAAUGGAUCCACAUCUACGAAUUCGUACCAUAGAGAGGUUUAUCCGCUCACCCGAGAUCGGAAGAGCACACGU
B3: target 1 A1C,C2G (mixed)
RNA 1: B1 RNA 1
RNA 2: GGGAAUGGAUCCACAUCUACGAAUUCGUACCAUAGAGAGGUUAUCCGCUGCCCGAGAUCGGAAGAGCACACGU
B4: target 1 C2G (mixed)
RNA 1: B1 RNA 1
RNA 2: B3 RNA 2 with C51A
B5: target 2 MT 5'PFS ACA 3'PFS ACA (mixed)
RNA 1: CACCCGUGCAAAAUUGCAGGGGUCUAAAACCUUCUCCAAAUUGUUUCAUCCU
RNA 2: GGGAAUGGAUCCACAUCUACGAAUUCACAAGGAUGAAACAAUUUGGAGAAGACAAGAUCGGAAGAGCACACGU
B6: target 2 MT 5'PFS CUC 3'PFS CCU (mixed)
RNA 1: B5 RNA 1
RNA 2: B5 RNA 2 with A27C, C28U, A29C, A52C, A54U
B7: target 2 MT 5'PFS AUU 3'PFS UAU (mixed)
RNA 1: B5 RNA 1
RNA 2: B5 RNA 2 with C28U, A29U, A52U, C53A, A54U
B8: target 2 MT 5'PFS CUC 3'PFS UUG (mixed)
RNA 1: B5 RNA 1
RNA 2: B5 RNA 2 with A27C, C28U, A29C, A52U, C53U, A54G
B9: target 2 MT 5'PFS CUU 3'PFS UUU (mixed)
RNA 1: B5 RNA 1
RNA 2: B5 RNA 2 with A27C, C28U, A29U, A52U, C53U, A54U
B10: target 2 MT 5'PFS GGU 3'PFS CAA (mixed)
RNA 1: B5 RNA 1
RNA 2: B5 RNA 2 with A27G, C28G, A29U, A52C, C53A
B11: target 2 MT 5'PFS GGU 3'PFS CAC (mixed)
RNA 1: B5 RNA 1
RNA 2: B5 RNA 2 with A27G, C28G, A29U, A52C, C53A, A54C
B12: target 2 MT 5'PFS CUA 3'PFS UCC (mixed)
RNA 1: B5 RNA 1
RNA 2: B5 RNA 2 with A27C, C28U, A52U, A54C
B13: target 2 MT 5'PFS GCC 3'PFS UAG (mixed)
RNA 1: B5 RNA 1
RNA 2: B5 RNA 2 with A27G, A29C, A52U, C53A, A54G
B14: target 2 MT 5'PFS CUC 3'PFS CCG (mixed)
RNA 1: B5 RNA 1
RNA 2: B5 RNA 2 with A27C, C28U, A29C, A52C, A54G
B15: target 2 MT 5'PFS GCC 3'PFS UAU (mixed)
RNA 1: B5 RNA 1
RNA 2: B5 RNA 2 with A27G, A29C, A52U, C53A, A54U
B16: target 2 MT 5'PFS CUA 3'PFS UCU (mixed)
RNA 1: B5 RNA 1
RNA 2: B5 RNA 2 with A27C, C28U, A52U, A54U
B17: target 2 MT 5'PFS GCA 3'PFS UUA (mixed)
RNA 1: B5 RNA 1
RNA 2: B5 RNA 2 with A27G, A52U, C53U
B18: target 2 MT 5'PFS CUA 3'PFS UCA (mixed)
RNA 1: B5 RNA 1
RNA 2: B5 RNA 2 with A27C, C28U, A52U
B19: target 2 MT 5'PFS UGG 3'PFS ACU (mixed)
RNA 1: B5 RNA 1
RNA 2: B5 RNA 2 with A27U, C28G, A29G, A54U
B20: target 2 MT 5'PFS UGG 3'PFS ACG (mixed)
RNA 1: B5 RNA 1
RNA 2: B5 RNA 2 with A27U, C28G, A29G, A54G
B21: target 2 MT 5'PFS UGG 3'PFS ACC (mixed)
RNA 1: B5 RNA 1
RNA 2: B5 RNA 2 with A27U, C28G, A29G, A54C
B22: target 2 MT 5'PFS AUU 3'PFS AAA (mixed)
RNA 1: B5 RNA 1
RNA 2: B5 RNA 2 with C28U, A29U, C53A
B23: target 2 MT 5'PFS GCC 3'PFS UAC (mixed)
RNA 1: B5 RNA 1
RNA 2: B5 RNA 2 with A27G, A29C, A52U, C53A, A54C
B24: target 2 MT 5'PFS CGC 3'PFS AUG (mixed)
RNA 1: B5 RNA 1
RNA 2: B5 RNA 2 with A27C, C28G, A29C, C53U, A54G
B25: target 2 MT 5'PFS UGC 3'PFS UUC (mixed)
RNA 1: B5 RNA 1
RNA 2: B5 RNA 2 with A27U, C28G, A29C, A52U, C53U, A54C
B26: target 2 MT 5'PFS AGG 3'PFS CAU (mixed)
RNA 1: B5 RNA 1
RNA 2: B5 RNA 2 with C28G, A29G, A52C, C53A, A54U
B27: target 2 MT 5'PFS ACA 3'PFS AUU (mixed)
RNA 1: B5 RNA 1
RNA 2: B5 RNA 2 with C53U, A54U
B28: target 2 MT 5'PFS AUU 3'PFS AAG (mixed)
RNA 1: B5 RNA 1
RNA 2: B5 RNA 2 with C28U, A29U, C53A, A54G
B29: target 2 MT 5'PFS CUC 3'PFS CCA (mixed)
RNA 1: B5 RNA 1
RNA 2: B5 RNA 2 with A27C, C28U, A29C, A52C
B30: target 2 MT 5'PFS AGA 3'PFS UGU (mixed)
RNA 1: B5 RNA 1
RNA 2: B5 RNA 2 with C28G, A52U, C53G, A54U
B31: target 2 MT 5'PFS GCC 3'PFS UAA (mixed)
RNA 1: B5 RNA 1
RNA 2: B5 RNA 2 with A27G, A29C, A52U, C53A
B32: target 2 MT 5'PFS UGC 3'PFS UUA (mixed)
RNA 1: B5 RNA 1
RNA 2: B5 RNA 2 with A27U, C28G, A29C, A52U, C53U
B33: target 2 MT 5'PFS GGU 3'PFS CAG (mixed)
RNA 1: B5 RNA 1
RNA 2: B5 RNA 2 with A27G, C28G, A29U, A52C, C53A, A54G
B34: target 2 MT 5'PFS GGU 3'PFS CAU (mixed)
RNA 1: B5 RNA 1
RNA 2: B5 RNA 2 with A27G, C28G, A29U, A52C, C53A, A54U
B35: target 2 MT 5'PFS GAU 3'PFS UCU (mixed)
RNA 1: B5 RNA 1
RNA 2: B5 RNA 2 with A27G, C28A, A29U, A52U, A54U
B36: target 2 MT 5'PFS AUG 3'PFS UUU (mixed)
RNA 1: B5 RNA 1
RNA 2: B5 RNA 2 with C28U, A29G, A52U, C53U, A54U
B37: target 2 MT 5'PFS CGC 3'PFS AUA (mixed)
RNA 1: B5 RNA 1
RNA 2: B5 RNA 2 with A27C, C28G, A29C, C53U
B38: target 2 MT 5'PFS UGG 3'PFS ACA (mixed)
RNA 1: B5 RNA 1
RNA 2: B5 RNA 2 with A27U, C28G, A29G

Biological target: T1, EsCas13d, nuclease-dead (Eubacterium siraeum, UniProt B0MS50, R295A;H300A;R849A;H854A)
T1 sequence: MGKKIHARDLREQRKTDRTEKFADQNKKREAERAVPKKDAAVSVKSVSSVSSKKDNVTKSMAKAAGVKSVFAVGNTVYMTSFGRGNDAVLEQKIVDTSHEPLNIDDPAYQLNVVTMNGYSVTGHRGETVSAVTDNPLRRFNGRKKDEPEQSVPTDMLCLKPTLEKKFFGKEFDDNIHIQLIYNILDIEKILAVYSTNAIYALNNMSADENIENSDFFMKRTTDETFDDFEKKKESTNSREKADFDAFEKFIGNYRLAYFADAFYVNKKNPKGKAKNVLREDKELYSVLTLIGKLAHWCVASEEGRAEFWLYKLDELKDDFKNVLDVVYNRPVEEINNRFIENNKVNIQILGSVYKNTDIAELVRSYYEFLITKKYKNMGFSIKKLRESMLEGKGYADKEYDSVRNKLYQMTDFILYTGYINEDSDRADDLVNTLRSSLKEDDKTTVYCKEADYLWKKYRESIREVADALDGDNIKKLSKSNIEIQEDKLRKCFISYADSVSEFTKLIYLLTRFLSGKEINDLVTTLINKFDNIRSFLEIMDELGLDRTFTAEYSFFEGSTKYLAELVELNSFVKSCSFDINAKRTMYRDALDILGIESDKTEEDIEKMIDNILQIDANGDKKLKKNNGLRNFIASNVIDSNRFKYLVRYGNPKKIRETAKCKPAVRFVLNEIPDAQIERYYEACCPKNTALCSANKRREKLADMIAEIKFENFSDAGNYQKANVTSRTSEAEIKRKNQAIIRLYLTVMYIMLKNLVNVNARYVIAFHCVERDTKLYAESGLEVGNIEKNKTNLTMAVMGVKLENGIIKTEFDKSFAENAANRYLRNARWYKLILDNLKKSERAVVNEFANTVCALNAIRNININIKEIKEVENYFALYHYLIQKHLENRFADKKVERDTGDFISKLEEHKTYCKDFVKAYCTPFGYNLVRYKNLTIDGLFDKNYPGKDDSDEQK
Assay: crRNA (strand 1, pre-loaded); Mg2+; 40 mM Tris-HCl pH 7.5, 150 mM NaCl, 6 mM MgCl2, 1 mM DTT, 0.1% Tween-20, 0.2 mg/ml BSA; 25 C; 10 min per concentration, then washed
Details: tags: His6-TwinStrep-SUMO cleaved; N-terminal SNAP kept (SNAP-Surface 488); label: 3' end held by stalled T7 RNA polymerase

Binder | Kd
B1 | 32.2 ± 3.2 nM
B2 | 8.9 ± 0.7 nM
B3 | 35 ± 4 nM
B4 | 8.3 ± 0.6 nM
B5 | 7.2 ± 2.3 nM
B6 | 23 ± 7 nM
B7 | 5.6 ± 0.4 nM
B8 | 3.2 ± 0.5 nM
B9 | 8.4 ± 0.7 nM
B10 | 8.6 ± 1.4 nM
B11 | 14.8 ± 2.2 nM
B12 | 3.4 ± 0.5 nM
B13 | 12 ± 3.4 nM
B14 | 2.21 ± 0.24 nM
B15 | 22 ± 4 nM
B16 | 3.6 ± 0.4 nM
B17 | 17 ± 4 nM
B18 | 2.17 ± 0.35 nM
B19 | 9.5 ± 1.3 nM

Binder | Kd
B20 | 5.5 ± 0.4 nM
B21 | 27 ± 6 nM
B22 | 4.7 ± 0.5 nM
B23 | 20 ± 7 nM
B24 | 5 ± 0.6 nM
B25 | ~40 nM
B26 | 4.6 ± 0.6 nM
B27 | 5.5 ± 0.8 nM
B28 | 5.6 ± 0.6 nM
B29 | 4.8 ± 0.7 nM
B30 | 9.5 ± 1.2 nM
B31 | 10.9 ± 2.7 nM
B32 | ~27 nM
B33 | 13 ± 1 nM
B34 | 14.9 ± 2.3 nM
B35 | 56 ± 15 nM
B36 | 25 ± 6 nM
B37 | 4 ± 0.5 nM
B38 | 6 ± 0.7 nM
